Measured values from PMC10995192 (Nature Communications, 2024).

Tests used:
[1] = target: SNS-101, fully human monoclonal IgG1 kappa antibody against VISTA (human); experiment: SPR; SNS-101 captured on IgG capture chip, VISTA-His as analyte (0-30 nM), 25 C, PBS 0.05% Tween 20, pH 5.8; 1:1 Langmuir MTL fit
[2] = target: SNS-101, fully human monoclonal IgG1 kappa antibody against VISTA (human); experiment: SPR; SNS-101 captured on IgG capture chip, VISTA-His as analyte (0-30 nM), 25 C, PBS 0.05% Tween 20, pH 6.0; 1:1 Langmuir MTL fit
[3] = target: SNS-101, fully human monoclonal IgG1 kappa antibody against VISTA (human); experiment: SPR; SNS-101 captured on IgG capture chip, VISTA-His as analyte (0-30 nM), 25 C, PBS 0.05% Tween 20, pH 6.2; 1:1 Langmuir MTL fit
[4] = target: SNS-101, fully human monoclonal IgG1 kappa antibody against VISTA (human); experiment: SPR; SNS-101 captured on IgG capture chip, VISTA-His as analyte (0-240 nM), 25 C, PBS 0.05% Tween 20, pH 6.4; 1:1 Langmuir MTL fit
[5] = target: SNS-101, fully human monoclonal IgG1 kappa antibody against VISTA (human); experiment: SPR; SNS-101 captured on IgG capture chip, VISTA-His as analyte (0-240 nM), 25 C, PBS 0.05% Tween 20, pH 6.6; 1:1 Langmuir MTL fit
[6] = target: SNS-101, fully human monoclonal IgG1 kappa antibody against VISTA (human); experiment: SPR; SNS-101 captured on IgG capture chip, VISTA-His as analyte (0-240 nM), 25 C, PBS 0.05% Tween 20, pH 6.8; 1:1 Langmuir MTL fit
[7] = target: SNS-101, fully human monoclonal IgG1 kappa antibody against VISTA (human); experiment: SPR; SNS-101 captured on IgG capture chip, VISTA-His as analyte (0-480 nM), 25 C, PBS 0.05% Tween 20, pH 7.0; 1:1 Langmuir MTL fit
[8] = target: SNS-101, fully human monoclonal IgG1 kappa antibody against VISTA (human); experiment: SPR; SNS-101 captured on IgG capture chip, VISTA-His as analyte (0-480 nM), 25 C, PBS 0.05% Tween 20, pH 7.2; 1:1 Langmuir MTL fit
[9] = target: SNS-101, fully human monoclonal IgG1 kappa antibody against VISTA (human); experiment: SPR; SNS-101 captured on IgG capture chip, VISTA-His as analyte (0-480 nM), 25 C, PBS 0.05% Tween 20, pH 7.4; 1:1 Langmuir MTL fit
[10] = target: SNS-101, fully human monoclonal IgG1 kappa anti-VISTA antibody (human); experiment: SPR; panel of VISTA-His variants and wild type as analytes over captured SNS-101; pH 5.8 (PBS, 0.05% Tween-20), 25 °C
[11] = target: PSGL-1-19mer-Fc (19 N-terminal residues of human PSGL-1 fused to human IgG1-Fc) (human) (UniProt Q14242); experiment: SPR; PSGL-1-19mer-Fc captured on IgG capture chip, VISTA-His (0-960 nM) as analyte; pH 6.0, PBS + 0.05% Tween-20; KD from equilibrium analysis
Chain of PSGL-1-19mer-Fc (19 N-terminal residues of human PSGL-1 fused to human IgG1-Fc) (human) (Q14242 42-412): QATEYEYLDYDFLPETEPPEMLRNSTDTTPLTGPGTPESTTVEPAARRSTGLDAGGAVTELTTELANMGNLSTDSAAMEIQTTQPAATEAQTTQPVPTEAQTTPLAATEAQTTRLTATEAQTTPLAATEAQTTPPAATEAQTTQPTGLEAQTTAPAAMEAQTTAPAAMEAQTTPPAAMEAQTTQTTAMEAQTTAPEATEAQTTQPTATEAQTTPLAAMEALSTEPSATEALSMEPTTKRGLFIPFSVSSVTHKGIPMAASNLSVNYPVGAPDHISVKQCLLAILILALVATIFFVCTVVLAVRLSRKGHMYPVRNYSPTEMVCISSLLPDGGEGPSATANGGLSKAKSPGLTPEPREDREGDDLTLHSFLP

[12] = target: SNS-101, fully human monoclonal IgG1 kappa anti-VISTA antibody (human); experiment: SPR; SNS-101 captured on IgG capture chip, VISTA-His (0-30 nM) as analyte; pH 5.8, PBS + 0.05% Tween 20, 25 °C; 1:1 Langmuir MTL fit; pH series
[13] = target: SNS-101, fully human monoclonal IgG1 kappa anti-VISTA antibody (human); experiment: SPR; SNS-101 captured on IgG capture chip, VISTA-His (0-30 nM) as analyte; pH 6.0, PBS + 0.05% Tween 20, 25 °C; 1:1 Langmuir MTL fit; pH series
[14] = target: SNS-101, fully human monoclonal IgG1 kappa anti-VISTA antibody (human); experiment: SPR; SNS-101 captured on IgG capture chip, VISTA-His (0-30 nM) as analyte; pH 6.2, PBS + 0.05% Tween 20, 25 °C; 1:1 Langmuir MTL fit; pH series
[15] = target: SNS-101, fully human monoclonal IgG1 kappa anti-VISTA antibody (human); experiment: SPR; SNS-101 captured on IgG capture chip, VISTA-His (0-240 nM) as analyte; pH 6.4, PBS + 0.05% Tween 20, 25 °C; 1:1 Langmuir MTL fit; pH series
[16] = target: SNS-101, fully human monoclonal IgG1 kappa anti-VISTA antibody (human); experiment: SPR; SNS-101 captured on IgG capture chip, VISTA-His (0-240 nM) as analyte; pH 6.6, PBS + 0.05% Tween 20, 25 °C; 1:1 Langmuir MTL fit; pH series
[17] = target: SNS-101, fully human monoclonal IgG1 kappa anti-VISTA antibody (human); experiment: SPR; SNS-101 captured on IgG capture chip, VISTA-His (0-240 nM) as analyte; pH 6.8, PBS + 0.05% Tween 20, 25 °C; 1:1 Langmuir MTL fit; pH series
[18] = target: SNS-101, fully human monoclonal IgG1 kappa anti-VISTA antibody (human); experiment: SPR; SNS-101 captured on IgG capture chip, VISTA-His (0-480 nM) as analyte; pH 7.0, PBS + 0.05% Tween 20, 25 °C; 1:1 Langmuir MTL fit; pH series
[19] = target: SNS-101, fully human monoclonal IgG1 kappa anti-VISTA antibody (human); experiment: SPR; SNS-101 captured on IgG capture chip, VISTA-His (0-480 nM) as analyte; pH 7.2, PBS + 0.05% Tween 20, 25 °C; 1:1 Langmuir MTL fit; pH series
[20] = target: SNS-101, fully human monoclonal IgG1 kappa anti-VISTA antibody (human); experiment: SPR; SNS-101 captured on IgG capture chip, VISTA-His (0-480 nM) as analyte; pH 7.4, PBS + 0.05% Tween 20, 25 °C; 1:1 Langmuir MTL fit; pH series
[21] = target: T1, C-terminal biotinylated hVISTA-Fc fusion protein (R&D Systems AVI7126-050) (human, UniProt Q9H7M9 33-194, biotin, C-terminal); experiment: ELISA; partner proteins coated at 5 µg/ml, biotinylated hVISTA-Fc serially diluted in 1% NFDM in PBS at pH 6.0; HRP-streptavidin; conditions: both partners purified
T1 construct: VISTA, human; source: bought: R&D Systems AVI7126-050
T1 sequence (looked up): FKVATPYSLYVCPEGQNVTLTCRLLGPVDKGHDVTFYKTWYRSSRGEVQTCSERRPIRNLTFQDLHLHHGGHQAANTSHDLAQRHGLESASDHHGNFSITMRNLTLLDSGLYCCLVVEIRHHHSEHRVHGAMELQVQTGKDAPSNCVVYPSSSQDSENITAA

[22] = target: T2, VISTA-His H98A/H100A/H154A/H155A/R159A (human, UniProt Q9H7M9, H98A | H100A | H154A | H155A | R159A); experiment: SPR; panel of VISTA-His variants and wild type as analytes over captured SNS-101; pH 5.8 (PBS, 0.05% Tween-20), 25 °C; conditions: both partners purified
T2 construct: VISTA, human; probably the extracellular domain; source: Expi293, purified (Ni-NTA)

A koff [1] of 0.00129 s⁻¹, a kon [1] of 3.68e+06 M⁻¹ s⁻¹ and a Kd [2] of 0.779 nM were found for “VISTA-His (human VISTA, V-domain immunoglobulin suppressor of T-cell activation, with His tag) (from UniProt Q9H7M9 33-311) (natural protein)” in this work. For the same molecule, the koff [2] was 0.00213 s⁻¹, the kon [2] was 2.74e+06 M⁻¹ s⁻¹ and the Kd [3] was 1.78 nM. The koff [3] was 0.00219 s⁻¹, the kon [3] was 1.23e+06 M⁻¹ s⁻¹ and the Kd [4] was 5.96 nM. The koff [4] was 0.00321 s⁻¹, the kon [4] was 539000 M⁻¹ s⁻¹ and the Kd [5] was 18.5 nM. The koff [5] was 0.00566 s⁻¹, the kon [5] was 306000 M⁻¹ s⁻¹ and the Kd [6] was 40.1 nM. The koff [6] was 0.00842 s⁻¹, the kon [6] was 210000 M⁻¹ s⁻¹ and the Kd [7] was 77 nM. The koff [7] was 0.0101 s⁻¹, the kon [7] was 131000 M⁻¹ s⁻¹ and the Kd [8] was 134 nM. It also gave a koff [8] of 0.0147 s⁻¹, a kon [8] of 110000 M⁻¹ s⁻¹ and a koff [9] of 0.0308 s⁻¹. The kon [9] was 87200 M⁻¹ s⁻¹.

A Kd [10] of 0.7 nM, a koff [10] of 0.0022 s⁻¹ and a kon [10] of 3.2e+06 M⁻¹ s⁻¹ were found for “VISTA-His (wild-type human VISTA) (from UniProt Q9H7M9 33-311) (natural protein)” in this work. It also gave a Kd [11] of 600 nM, a koff [12] of 0.00129 s⁻¹ and a kon [12] of 3.68e+06 M⁻¹ s⁻¹. For the same molecule, the Kd [13] was 0.779 nM, the koff [13] was 0.00213 s⁻¹ and the kon [13] was 2.74e+06 M⁻¹ s⁻¹. It also gave a Kd [14] of 1.78 nM, a koff [14] of 0.00219 s⁻¹ and a kon [14] of 1.23e+06 M⁻¹ s⁻¹. The Kd [15] was 5.96 nM, the koff [15] was 0.00321 s⁻¹ and the kon [15] was 539000 M⁻¹ s⁻¹. The Kd [16] was 18.5 nM, the koff [16] was 0.00566 s⁻¹ and the kon [16] was 306000 M⁻¹ s⁻¹. For the same molecule, the Kd [17] was 40.1 nM, the koff [17] was 0.00842 s⁻¹ and the kon [17] was 210000 M⁻¹ s⁻¹. It also gave a Kd [18] of 77 nM, a koff [18] of 0.0101 s⁻¹ and a kon [18] of 131000 M⁻¹ s⁻¹. The Kd [19] was 134 nM, the koff [19] was 0.0147 s⁻¹ and the kon [19] was 110000 M⁻¹ s⁻¹. For the same molecule, the koff [20] was 0.0308 s⁻¹ and the kon [20] was 87200 M⁻¹ s⁻¹.

B1: hSyndecan-2 (R&D Systems 2965-SD) (natural protein, human, UniProt P34741 19-144, looked up)
chain: ESRAELTSDKDMYLDNSSIEEASGVYPIDDDDYASASGSGADEDVESPELTTSRPLPKILLTSAAPKVETTTLNIQNKIPAQTKSPEETDKEKVHLSDSERKMDPAEEDTNVYTEKHSDSLFKRTE
notes: Syndecan-2, human; source: bought: R&D Systems 2965-SD
B1: binds [21].

B2: SNS-101, fully human monoclonal IgG1 kappa anti-VISTA antibody (antibody, V domains shown)
VH: EVQLVESGGGLVQPGGSLRLSCAASGFTFDDYSMNWVRQAPGKGLEWVSYISSDADTIYYADSVKGRFTISRDNAKNSLYLQMNSLRAEDTAVYYCAREAGGVLGRVDFQHWGQGTLVTVSS
VL: DIQLTQSPSSLSASVGDRVTITCQASQDISNYLNWYQQKPGKAPKLLIYDASNLGTGVPSRFSGSGSGTDFTFTISSLQPEDIATYYCQQADFVPPWTFGGGTKVEIK
notes: the Fab part is in PDB 8TBQ; human IgG1 heavy chain; the light chain is in PDB 8TBQ; human kappa light chain; IgG1 kappa; captured on an IgG capture sensor chip in SPR; source: ExpiCHO, transient transfection, purified (Protein A)
A Kd [22] greater than 960 nM was found for B2 in this work.
